In patent publication US20200261490A1 (AARHUS UNIVERSITET, published 2020):

Tests used:
[1] = biological target: T1, recombinant human stanniocalcin 1, C-terminally myc-his-tagged (human, UniProt P52823 34-247); assay: SPR (Biacore T200); PAPP-A captured by immobilised mAb 234-5, purified STC1 as analyte, global 1:1 Langmuir fit
Protocol: (§1) Surface plasmon resonance experiments were carried out on a Biacore T200 (GE Healthcare). Using amine coupling, purified monoclonal antibody 234-5 was immobilized in flow cells (FC) 3 and 4 of a Series S CM5 Sensor Chip (GE Healthcare). To reach a coupling density of 5,000 response units (RU), the antibody was diluted to 30 μg ml⁻¹ in 10 mM sodium acetate, pH 4.75. Remaining active groups were blocked by a 7 min injection of 1 M ethanolamine, pH 8.0. […] The association phase was 180 s, followed by a 1,000 s dissociation phase. At the end of each binding cycle, both surfaces were regenerated by a 40 s injection of 0.1 M glycine, pH 2.5, and 0.5 M guanidine hydrochloride. […] Binding analysis was performed at 25° C., and data were collected at a rate of 10 Hz. Recorded signals were subtracted the background signal, as determined by the response obtained from the reference cell. Global fitting of a 1:1 Langmuir model was performed, using the Biacore T200 Evaluation Software, version 1.0.

[2] = biological target: T1, recombinant human stanniocalcin 1, …; assay: SPR (Biacore T200), PAPP-A captured by immobilised mAb 234-5, STC1 injected at 0.20-6.26 nM, global 1:1 Langmuir fit
Protocol: as §1

Kd [1]: 0.075 nM
Kd [2]: 0.0749 nM
koff [2]: 0.000208 s⁻¹
kon [2]: 2.78e+06 M⁻¹ s⁻¹
B1: recombinant human PAPP-A (pregnancy-associated plasma protein-A, pappalysin-1) (enzyme)
chain: EARGATEEPSPPSRALYFSGRGEQLRLRADLELPRDAFTLQVWLRAEGGQRSPAVITGLYDKCSYISRDRGWVVGIHTISDQDNKDPRYFFSLKTDRARQVTTINAHRSYLPGQWVYLAATYDGQFMKLYVNGAQVATSGEQVGGIFSPLTQKCKVLMLGGSALNHNYRGYIEHFSLWKVARTQREILSDMETHGAHTALPQLLLQENWDNVKHAWSPMKDGSSPKVEFSNAHGFLLDTSLEPPLCGQTLCDNTEVIASYNQLSSFRQPKVVRYRVVNLYEDDHKNPTVTREQVDFQHHQLAEAFKQYNISWELDVLEVSNSSLRRRLILANCDISKIGDENCDPECNHTLTGHDGGDCRHLRHPAFVKKQHNGVCDMDCNYERFNFDGGECCDPEITNVTQTCFDPDSPHRAYLDVNELKNILKLDGSTHLNIFFAKSSEEELAGVATWPWDKEALMHLGGIVLNPSFYGMPGHTHTMIHEIGHSLGLYHVFRGISEIQSCSDPCMETEPSFETGDLCNDTNPAPKHKSCGDPGPGNDTCGFHSFFNTPYNNFMSYADDDCTDSFTPNQVARMHCYLDLVYQGWQPSRKPAPVALAPQVLGHTTDSVTLEWFPPIDGHFFERELGSACHLCLEGRILVQYASNASSPMPCSPSGHWSPREAEGHPDVEQPCKSSVRTWSPNSAVNPHTVPPACPEPQGCYLELEFLYPLVPESLTIWVTFVSTDWDSSGAVNDIKLLAVSGKNISLGPQNVFCDVPLTIRLWDVGEEVYGIQIYTLDEHLEIDAAMLTSTADTPLCLQCKPLKYKVVRDPPLQMDVASILHLNRKFVDMDLNLGSVYQYWVITISGTEESEPSPAVTYIHGSGYCGDGIIQKDQGEQCDDMNKINGDGCSLFCRQEVSFNCIDEPSRCYFHDGDGVCEEFEQKTSIKDCGVYTPQGFLDQWASNASVSHQDQQCPGWVIIGQPAASQVCRTKVIDLSEGISQHAWYPCTISYPYSQLAQTTFWLRAYFSQPMVAAAVIVHLVTDGTYYGDQKQETISVQLLDTKDQSHDLGLHVLSCRNNPLIIPVVHDLSQPFYHSQAVRVSFSSPLVAISGVALRSFDNFDPVTLSSCQRGETYSPAEQSCVHFACEKTDCPELAVENASLNCSSSDRYHGAQCTVSCRTGYVLQIRRDDELIKSQTGPSVTVTCTEGKWNKQVACEPVDCSIPDHHQVYAASFSCPEGTTFGSQCSFQCRHPAQLKGNNSLLTCMEDGLWSFPEALCELMCLAPPPVPNADLQTARCRENKHKVGSFCKYKCKPGYHVPGSSRKSKKRAFKTQCTQDGSWQEGACVPVTCDPPPPKFHGLYQCTNGFQFNSECRIKCEDSDASQGLGSNVIHCRKDGTWNGSFHVCQEMQGQCSVPNELNSNLKLQCPDGYAIGSECATSCLDHNSESIILPMNVTVRDIPHWLNPTRVERVVCTAGLKWYPHPALIHCVKGCEPFMGDNYCDAINNRAFCNYDGGDCCTSTVKTKKVTPFPMSCDLQGDCACRDPQAQEHSRKDLRGYSHG
notes: Secreted from transfected HEK293T cells and used in culture medium; also called wt PAPP-A; huPAPP-A
